B1: IM-E2 (antibody, V domains shown)
VH: QSVKESEGGLFKPTDTLTLTCTVSGFSLSAYAISWVRQAPGNGLEWIGAINSGGSAYYANWAKSRSTITRNTNLNTVTLKMTSLTAADTATYFCAREDIYDYGGAFDPWGPGTLVTVST
VL: AYDMTQTPASVEVTVGGTVTIKCQASQGISSYLSWYQQKPGQPPKLLIYAATTLVSGVSSRFKGSGSGTQFTLTISGVECADAATYYCQQDYTTSNVDNTFGGGTEVVVKG
notes: Rabbit monoclonal, Class II
B2: IM-C6 (antibody, V domains shown)
VH: QSVKESEGGLFKPTDALTLTCTVSGFSLSSYAISWVRQAPGSGLEWIGAINTYGGTYYASWAKSRSTITRNTNENTVTLKMTSLTAADTATYFCARDFDSDAYTSASGGMDWGPGTLVTVSS
VL: AYDMTQTPASVEVAVGGTVTIKCQASQSINNYLSWYQQIPGQPPKLLIYRASTLASGVSSRFKGSGSGTQFTLTISGVQCADAATYYCQQGYTSNVDNVFGGGTEVVVKG
notes: Rabbit monoclonal, Class II

Six molecules from patent US20240043512A1 (IMCARE BIOTECH, published 2024) can be followed below.

One experiment has as its target IM-CA22. Nature of the experiment: competition ELISA: 0.5 µg/mL peptide added to prevent the binding of AS-SPIK with IM-CA22; inhibition rate from OD value with vs without peptide. In general terms: ELISA stands for enzyme-linked immunosorbent assay.
Sequence of IM-CA22 (VH, as listed by the source, chain 1 of 2): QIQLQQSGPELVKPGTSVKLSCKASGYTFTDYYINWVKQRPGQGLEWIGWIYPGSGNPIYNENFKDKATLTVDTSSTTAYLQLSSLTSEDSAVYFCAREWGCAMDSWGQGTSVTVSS
Sequence of IM-CA22 (VL, as listed by the source, chain 2 of 2): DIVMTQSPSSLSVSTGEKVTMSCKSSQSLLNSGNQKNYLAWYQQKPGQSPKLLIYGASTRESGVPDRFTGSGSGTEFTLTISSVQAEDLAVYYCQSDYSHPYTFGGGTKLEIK
As for SGNTGADSLGREA [SPIK1], the Inhibition % stood at 9%.
On the same count and under the same terms, as for LSLSGNTGA [SPIK8], the figure is 11%; as for SLSGNTGADSLGR [SPIK2], 10%; as for LLSLSGNTGADSL [SPIK3], 11%.

The target in another experiment is T1, Peptide A (entire sequence of AS-SPIK without disulfide bonds) (human, cysteine side-groups inactivated, no disulfide bonds).
T1 construct: Synthesized by BioMatik
T1 peptide: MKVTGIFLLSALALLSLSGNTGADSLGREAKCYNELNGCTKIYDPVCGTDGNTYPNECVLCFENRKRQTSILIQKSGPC
As to the kind of experiment: ELISA, plate coated with peptide, HRP-labelled antibody. The source says:
In order to further support the observation that epitopes specific to AS-SPIK and not NS-SPIK are conformation-dependent, additional tests to evaluate antibody binding to various synthesized peptides was completed. Four peptides, each containing sequences from different regions of AS-SPIK were synthesized by BioMatik (Wilmington DE). Peptide A contains the entire sequence of AS-SPIK, but without the formation of any disulfide bonds via the inactivation of cysteine side-groups. Peptide B contains the sequence of AS-SPIK fragment from M₁-G₅₀, Peptide C contains the sequence of AS-SPIK fragment from D₂₃-G₅₀ and Peptide D contains the sequence of AS-SPIK fragment from N₅₁-C₇₉. The binding activity of our monoclonal antibodies to AS-SPIK and the other peptides was tested by ELISA and results for IM-CA22 are shown in FIG. 6. Similar results were obtained from all other monoclonal anti-AS-SPIK antibodies we have developed, including IM-CA18, IM-CA46, IM-CA77, IM-A1, IM-A6, IM-B10, IM-C6, IM-D3, IM-D5, IM-E2, IM-F5, IM-G6 and IM-G7. Briefly, a 96-well plate was coated with Native AS-SPIK and different peptides, the plate then reacted with anti-AS-SPIK antibody (IM-CA22 herein) labeled with HRP. The OD450 nm was determined after incubating the plate with the substrate, TMB.
As for B1, the binding result is listed as “no binding”.
The same measure, in the same setting: for B2 the value was “no binding”.
